# Reference: article PMC10881513 (Nature Communications, 2024)
# T1: ASFV RNA polymerase subunit vRPB1 (African swine fever virus, strain BA71V, UniProt P42486 1-1450)
# T1 sequence: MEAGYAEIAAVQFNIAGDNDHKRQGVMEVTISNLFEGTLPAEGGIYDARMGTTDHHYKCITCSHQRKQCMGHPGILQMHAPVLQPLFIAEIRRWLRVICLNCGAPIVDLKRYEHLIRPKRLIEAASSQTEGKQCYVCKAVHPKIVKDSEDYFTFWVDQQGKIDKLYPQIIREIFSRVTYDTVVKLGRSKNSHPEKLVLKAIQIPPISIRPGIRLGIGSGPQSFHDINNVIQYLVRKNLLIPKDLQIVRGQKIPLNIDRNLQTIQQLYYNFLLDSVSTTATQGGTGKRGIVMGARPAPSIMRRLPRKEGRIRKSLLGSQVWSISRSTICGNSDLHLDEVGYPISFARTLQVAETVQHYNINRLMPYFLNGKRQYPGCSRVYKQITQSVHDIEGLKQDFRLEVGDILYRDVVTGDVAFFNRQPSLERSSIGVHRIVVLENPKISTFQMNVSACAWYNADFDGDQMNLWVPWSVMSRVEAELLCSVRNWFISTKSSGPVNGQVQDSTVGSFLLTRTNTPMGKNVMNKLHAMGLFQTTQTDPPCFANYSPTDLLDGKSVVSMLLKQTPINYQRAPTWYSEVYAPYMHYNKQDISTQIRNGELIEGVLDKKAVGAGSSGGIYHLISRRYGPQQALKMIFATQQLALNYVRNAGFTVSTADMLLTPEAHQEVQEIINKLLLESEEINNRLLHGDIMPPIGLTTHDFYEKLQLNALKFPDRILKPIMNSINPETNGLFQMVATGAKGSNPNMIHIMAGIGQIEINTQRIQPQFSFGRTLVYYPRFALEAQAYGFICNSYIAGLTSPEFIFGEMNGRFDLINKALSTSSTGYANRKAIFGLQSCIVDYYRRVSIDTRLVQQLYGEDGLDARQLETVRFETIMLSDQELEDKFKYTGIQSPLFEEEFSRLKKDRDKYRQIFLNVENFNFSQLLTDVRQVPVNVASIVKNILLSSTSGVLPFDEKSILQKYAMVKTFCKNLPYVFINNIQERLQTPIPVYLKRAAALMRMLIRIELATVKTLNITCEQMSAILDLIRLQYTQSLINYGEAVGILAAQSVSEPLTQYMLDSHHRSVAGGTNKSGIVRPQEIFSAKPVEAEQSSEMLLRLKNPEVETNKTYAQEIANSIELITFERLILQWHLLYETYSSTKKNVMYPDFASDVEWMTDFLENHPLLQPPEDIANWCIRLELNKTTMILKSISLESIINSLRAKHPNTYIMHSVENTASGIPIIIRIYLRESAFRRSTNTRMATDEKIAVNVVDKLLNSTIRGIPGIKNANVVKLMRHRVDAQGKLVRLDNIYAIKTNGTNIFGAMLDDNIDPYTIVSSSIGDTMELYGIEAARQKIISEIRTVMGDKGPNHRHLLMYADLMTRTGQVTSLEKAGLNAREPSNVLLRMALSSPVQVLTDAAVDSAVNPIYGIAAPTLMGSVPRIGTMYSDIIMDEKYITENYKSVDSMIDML
# B1: ASFV RNA polymerase subunit vRPB2, His-ZZ-tag cleaved with TEV (natural protein)
# chain: MEPLRPQITYGPIETVDNEELTEADMLSFISAAVNSTGLIGYNIKSFDDLMDNGIPQIVKQMFNVDITYKDQRDHTEIDKLRESVQIQFNFTDVNIERPQHRNYSQGNKINLLPNKARLCGLSYSGPVNLAAEVILTAHYSNGRQEVKRASIPPFQVSTFPIMRGSNRCHTHHLSKTAKKEIGEDPNEPGGYFIARGGEWVVDLLENIRFNTLHIHYHTMQQGNNEIIRGEFISQPGGAFENSSQIIIRYMTTGAITIEINSTKFSKLRIPWYLIFRMFGMTGDDSIIEQVVFDLESNSPVNTFMIEILEKSIHVLDPIFQPVQHEPNREKIIQFLSEKVSKFVSNPSAYKSDENAVQYLNERQLTILDKILLPHMGQTADTRVRKLRFLGLLIHKILLVIMNVFPPTDRDSYRTKRVHGSGVSLAKAFKAIFNTSVIAPIINGFKELLKQTAFEELTQRNIIEAFSAALSKNTASDLNRSMEQSIISGNKTIMVRQRPIVNRVSTQSLERKNLLNTISALRTVNTHNTTNASKQTERADMMRRVHASYPGYICVAQSADTGEKVGMSKQLAITANVCTAGEVLSLKQRLLSDPAIQQLADVSNKDIVRKGLARVFINGEWIGCCTNAFELAQRYRMFRREGKIVHPHTTIYWDSMVDEVEFWLDVGRLTRPLLIVDNNIEKYNQACYKAAEARKKGDKDWEKHKIPFIQNTRFTSQMAKDILAGTLTLEDLVAQGICEFITPEEAENCLVAFSIIELRKHKHDVTRRFTHVDVPQAILGLAALVSPYANCTQPARVTYETNQGRQTGGWYCFSWPYRVDMNRFFQFYNEMPLVKTIAHNYVIPNGLNTIVAYMIYGGYNQEDSVIVSQSFIDRGGFAGTFYREEKVELESDIESFGKPDPLITKNLKPGANYEKLVDGFVPVGTVVKKGDIIIGKVAKIRGEKDELNKYIDRSVMYGFDEPAVVDAVMRPHGPNDEIFGLMRLRYERNLNIGDKMSSRSGNKGIAALALPTSDMPFTEDGLQPDLIVNPHSHPSRMTNGQMIETTVGLANALQGVVTDGTAFLPINVQLLSERLAQEGLRFNGCQKMFNGQTGEYFDAAIFIGPTYHQRLQKFVLDDRYAVASYGPTDALTGQPLDGKRSHGGLRLGEMEHWVLTAQGAMQTIIEKSHDDSDGCISYICRNCGEPAIYNASHPIYKCMNCDVQADIGMVDSRRSSIVFQHEMRAANVNITSVLSPRVFQPA
# Target: T1, ASFV RNA polymerase subunit vRPB1
# Test: cryo-EM structure
# Conditions: both partners purified
binder,measurement,value
B1,binding result,binds
